Experimental data reported in PMC9991925 (2022).

Assays:
Fc(aMD4)T2 = Fc(aMD4)T2 (human, UniProt P01857 104-330 = IgG part); assay: SPR
Fc(aMD4ds)B3 = Fc(aMD4ds)B3 (human, UniProt P01857 104-330 = IgG part); assay: SPR
Fc(aMD4)B3 = Fc(aMD4)B3 (human, UniProt P01857 104-330 = IgG part); assay: SPR
Fc(aMD4)T3 = assay: SPR
Fc(aMD4)T1 = Fc(aMD4)T1 (human, UniProt P01857 104-330 = IgG part); assay: SPR
Fc(aMD4)M2 = Fc(aMD4)M2 (human, UniProt P01857 104-330 = IgG part); assay: SPR
Fc(aMD4ds)T1 = Fc(aMD4ds)T1 (human, UniProt P01857 104-330 = IgG part); assay: SPR
Fc(aMD4)B2 = Fc(aMD4)B2 (human, UniProt P01857 104-330 = IgG part); assay: SPR
Fc(aMD4)B1 = Fc(aMD4)B1 (human, UniProt P01857 104-330 = IgG part); assay: SPR
recombinant mouse TfR = recombinant mouse TfR (mouse, UniProt Q62351 1-763); assay: ELISA
Sequence of recombinant mouse TfR (Q62351 89-763): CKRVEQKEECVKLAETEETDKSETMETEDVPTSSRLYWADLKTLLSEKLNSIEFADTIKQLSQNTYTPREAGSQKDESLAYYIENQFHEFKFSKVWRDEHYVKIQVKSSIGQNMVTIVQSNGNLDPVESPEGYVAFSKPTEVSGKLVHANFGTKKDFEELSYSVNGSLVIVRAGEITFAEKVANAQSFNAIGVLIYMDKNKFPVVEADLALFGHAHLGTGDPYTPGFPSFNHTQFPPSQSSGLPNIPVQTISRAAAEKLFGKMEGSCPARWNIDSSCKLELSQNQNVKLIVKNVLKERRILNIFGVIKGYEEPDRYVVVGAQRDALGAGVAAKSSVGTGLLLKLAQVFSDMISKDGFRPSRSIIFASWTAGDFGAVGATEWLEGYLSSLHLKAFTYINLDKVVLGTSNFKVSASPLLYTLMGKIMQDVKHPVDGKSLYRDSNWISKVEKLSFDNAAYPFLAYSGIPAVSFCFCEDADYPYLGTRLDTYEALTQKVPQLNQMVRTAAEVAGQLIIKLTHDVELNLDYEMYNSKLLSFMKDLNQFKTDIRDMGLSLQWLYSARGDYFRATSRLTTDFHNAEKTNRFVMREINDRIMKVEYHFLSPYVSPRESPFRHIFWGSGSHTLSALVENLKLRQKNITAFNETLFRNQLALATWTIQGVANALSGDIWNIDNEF

B1: ectodomain fragment of human Met (MetECD, 1-931), biotinylated (domain or fragment)
chain: ECKEALAKSEMNVNMKYQLPNFTAETPIQNVILHEHHIFLGATNYIYVLNEEDLQKVAEYKTGPVLEHPDCFPCQDCSSKANLSGGVWKDNINMALVVDTYYDDQLISCGSVNRGTCQRHVFPHNHTADIQSEVHCIFSPQIEEPSQCPDCVVSALGAKVLSSVKDRFINFFVGNTINSSYFPDHPLHSISVRRLKETKDGFMFLTDQSYIDVLPEFRDSYPIKYVHAFESNNFIYFLTVQRETLDAQTFHTRIIRFCSINSGLHSYMEMPLECILTEKRKKRSTKKEVFNILQAAYVSKPGAQLARQIGASLNDDILFGVFAQSKPDSAEPMDRSAMCAFPIKYVNDFFNKIVNKNNVRCLQHFYGPNHEHCFNRTLLRNSSGCEARRDEYRTEFTTALQRVDLFMGQFSEVLLTSISTFIKGDLTIANLGTSEGRFMQVVVSRSGPSTPHVNFLLDSHPVSPEVIVEHTLNQNGYTLVITGKKITKIPLNGLGCRHFQSCSQCLSAPPFVQCGWCHDKCVRSEECLSGTWTQQICLPAIYKVFPNSAPLEGGTRLTICGWDFGFRRNNKFDLKKTRVLLGNESCTLTLSESTMNTLKCTVGPAMNKHFNMSIIISNGHGTTQYSTFSYVDPVITSISPKYGPMAGGTLLTLTGNYLNSGNSRHISIGGKTCTLKSVSNSILECYTPAQTISTEFAVKLKIDLANRETSIFSYREDPIVYEIHPTKSFISGGSTITGVGKNLNSVSVPRMVINVHEAGRNFTVACQHRSNSEIICCTTPSLQQLNLQLPLKTKAFFMLDGILSKYFDLIYVHNPVFKPFEKPVMISMGNENVLEIKGNDIDPEAVKGEVLKVGNKSCENIHLHSEAVLCTVPNDLLKLNSELNIEWKQAISSTVLGKVIVQPDQNF
modifications: biotin on the biotin acceptor sequence (BirA-mediated)
Kd (Fc(aMD4)T2): 401 nM | Kd (Fc(aMD4ds)B3): 3.7 nM | Kd (Fc(aMD4)B3): 4 nM | Kd (Fc(aMD4)T3): 652 nM | Kd (Fc(aMD4)T1): 75.8 nM | Kd (Fc(aMD4)M2): 18.9 nM | Kd (Fc(aMD4ds)T1): 73.4 nM | Kd (Fc(aMD4)B2): 79.1 nM | Kd (Fc(aMD4)B1): 10.8 nM

B2: sTfR(aMD4) (antibody, V domains shown)
VH: EVQLVESGGGLVQPGNSLTLSCVASGFTFSNYGMHWIRQAPKKGLEWIAMIYYDSSKMNYADTVKGRFTISRDNSKNTLYLEMNSLRSEDTAMYYCAVPTSHYVVDVWGQGVSVTVSS
VL: DIQMTQSPASLSASLEEIVTITCQASQDIGNWLAWYQQKPGKSPQLLIYGATSLADGVPSRFSGSRSGTQFSLKISRVQVEDIGIYYCLQAYNTPWTFGGGTKLELK
Kd (recombinant mouse TfR): 30.8 nM

B3: dTfR(aMD4) (antibody, V domains shown)
VH: B2 VH
VL: B2 VL
Kd (recombinant mouse TfR): 0.36 nM
